In paper PMC4157081:
Several values for one entry are separate records, joined by “and”; a condition that tells them apart may be missing. Identical values can stand only once.

What was measured:
Assay in all cases: cryo-EM structure
[1] = molecular target: CUS-3 tailspike protein (gp9 by the name of the P22 homologue) (bacteriophage CUS-3)
[2] = molecular target: CUS-3 tail needle protein (gp26 by the name of the P22 homologue) (bacteriophage CUS-3)
[3] = molecular target: CUS-3 portal protein (gp1 by the name of the P22 homologue) (bacteriophage CUS-3)
[4] = molecular target: CUS-3 coat protein (CP, major capsid protein; gp5 by the name of the P22 homologue) (bacteriophage CUS-3)

CUS-3 tailspike protein (gp9 by the name of the P22 homologue) (natural protein)
stoichiometry N [1]: 3

CUS-3 tail needle protein (gp26 by the name of the P22 homologue) (natural protein)
stoichiometry N [2]: 3

CUS-3 portal protein (gp1 by the name of the P22 homologue) (natural protein)
stoichiometry N [3]: 12

CUS-3 coat protein (CP, major capsid protein; gp5 by the name of the P22 homologue) (natural protein)
stoichiometry N [4]: 5 and 6
